Reference: article PMC7790537 (PLoS ONE, 2021)

B1: F11 IgA1 polymer (antibody, V domains shown)
VH: QVQLVQSGAEVKRPGSSVRVSCRTSGGSFTSFAISWVRQAPGQGLEWMGRITRILGVPNYAQKFQGRVTITADMPTTTAYLDLTNLRSEDTAVYYCARDSGTSHGDFDYWGQGTLVTVSS
VL: EIVLTQSPVTLSLSPGERATLSCRASQNVINSLVWYQQKPGQAPRLLIYGASNRATGIPARFRGSGSGTDFTLTIDSLEPEDIAVYYCQQRGTWLWSFGQGTKVEIK
B2: F11 IgA2m2 polymer (antibody, V domains shown)
VH: QVQLVQSGAEVKRPGSSVRVSCRTSGGSFTSFAISWVRQAPGQGLEWMGRITRILGVPNYAQKFQGRVTITADMPTTTAYLDLTNLRSEDTAVYYCARDSGTSHGDFDYWGQGTLVTVSS
VL: EIVLTQSPVTLSLSPGERATLSCRASQNVINSLVWYQQKPGQAPRLLIYGASNRATGIPARFRGSGSGTDFTLTIDSLEPEDIAVYYCQQRGTWLWSFGQGTKVEIK
B3: F11 IgA2m2 monomer (antibody, V domains shown)
VH: QVQLVQSGAEVKRPGSSVRVSCRTSGGSFTSFAISWVRQAPGQGLEWMGRITRILGVPNYAQKFQGRVTITADMPTTTAYLDLTNLRSEDTAVYYCARDSGTSHGDFDYWGQGTLVTVSS
VL: EIVLTQSPVTLSLSPGERATLSCRASQNVINSLVWYQQKPGQAPRLLIYGASNRATGIPARFRGSGSGTDFTLTIDSLEPEDIAVYYCQQRGTWLWSFGQGTKVEIK
B4: F11 IgA1 monomer (antibody, V domains shown)
VH: QVQLVQSGAEVKRPGSSVRVSCRTSGGSFTSFAISWVRQAPGQGLEWMGRITRILGVPNYAQKFQGRVTITADMPTTTAYLDLTNLRSEDTAVYYCARDSGTSHGDFDYWGQGTLVTVSS
VL: EIVLTQSPVTLSLSPGERATLSCRASQNVINSLVWYQQKPGQAPRLLIYGASNRATGIPARFRGSGSGTDFTLTIDSLEPEDIAVYYCQQRGTWLWSFGQGTKVEIK

Molecular target: recombinant trimeric HA of A/Puerto Rico/8/1934 (H1N1) (influenza A virus A/Puerto Rico/8/1934 …, UniProt P03452)
Sequence (P03452 18-528): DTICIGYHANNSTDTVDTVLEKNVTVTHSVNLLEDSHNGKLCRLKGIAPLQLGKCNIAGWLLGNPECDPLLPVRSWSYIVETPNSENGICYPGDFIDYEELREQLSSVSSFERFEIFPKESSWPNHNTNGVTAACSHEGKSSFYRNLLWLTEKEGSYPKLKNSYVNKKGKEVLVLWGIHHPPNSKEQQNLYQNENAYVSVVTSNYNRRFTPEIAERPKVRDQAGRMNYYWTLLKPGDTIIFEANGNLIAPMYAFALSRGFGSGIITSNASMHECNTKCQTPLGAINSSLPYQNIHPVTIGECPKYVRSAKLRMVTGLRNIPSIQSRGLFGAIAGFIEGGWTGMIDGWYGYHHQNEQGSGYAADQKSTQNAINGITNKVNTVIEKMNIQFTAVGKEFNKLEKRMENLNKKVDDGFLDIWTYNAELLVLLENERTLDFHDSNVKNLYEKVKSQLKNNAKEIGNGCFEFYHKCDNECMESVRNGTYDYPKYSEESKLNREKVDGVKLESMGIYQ
Assay: cell-based or functional assay

| Binder | HI activity, minimum HI concentration, PR8 virus [µg/mL] | NI activity, EC50 (NI-ELLA), PR8 virus [µg/mL] | NT activity, minimum virus-neutralizing concentration, PR8 virus [µg/mL] |
| --- | --- | --- | --- |
| B1 | 500 | 0.222 | 25 |
| B2 | 500 | 0.418 | 50 |
| B3 | 500 | 0.683 | 89.1 |
| B4 | 354 | 0.301 | 50 |
